# Biological target: Fab of trastuzumab (human)
# Assay: SPR; Fab of trastuzumab amine-coupled to a CM5 chip (1,000 RU), VHH as analyte in a 1/2 dilution series; Biacore X100, HBS-EP (10 mM HEPES pH 7.4, 150 mM NaCl, 3 mM EDTA, 0.005% P20), 20°C, 10 µL/min, association 360 s, dissociation 800 s; 1:1 binding model
Binder,Kd [nM],koff [s⁻¹],kon [M⁻¹ s⁻¹]
VHH clone Ig-S506 (cluster Ig-7) (VHH) VHH: QVQLVESGGGLVQAGGSLRLSCAASGFTFDDYVIGWFRQAPGKEREGVSCISSSDGSTNYADSVKGRFTISSDNAKNTVYLQMNSLKPEDTAVYYCAEGPTVLDGCIYDSGSYYFSWGQGTQVTVSS,246,0.0073,29700
VHH clone Ig-S1139 (cluster Ig-7) (VHH) VHH: QVQLVESGGGLVQAGGSLRLSCAASGFTFDDYVIGWFRQAPGKEREGVSCISSSDGSTYYADSVKGRFTISSDNAKNTVYLQMNSLKPEDTAVYYCAEGPTVLDGCIVDSGSYYFSWGQGTQVTVSS,233,0.00554,23700
VHH clone Ig-S8492 (cluster Ig-7) (VHH) VHH: QVQLVESGGGLVQAGGSLRLSCAASGFTFDDYVIGWFRQAPGKEREGVSCISSSDGRTDYADSVKGRFTISSDNAKNTVYLQMNSLKPEDTAVYYCAAGPTVLDGCIYYSGSYYFSWGQGTQVTVSS,123,0.000245,1990

# The next binders have a lower Kd than those just listed; values first:
Kd [nM],koff [s⁻¹],kon [M⁻¹ s⁻¹],Binder
5.99,0.000221,36900,VHH clone Ig-S6584 (cluster Ig-7) (VHH) VHH: QVQLVESGGGLVQAGGSLRLSCAASGFTFDDYIVGWFRQAPGKEREGVSCIRSSDGSTNYADSVKGRFTVSSDNAKNTVYLQMNSLKPEDTAVYYCAEGPTVLDGCIYDSESYYFSWGQGTQVTVSS
0.155,4.71e-05,303000,VHH clone Ig-S675 (cluster Ig-7) (VHH) VHH: QVQLVESGGGLVQAGGSLRLSCAATGFTFDDYVIGWFRQASGKEREGVSCIRSSDGDTYYADSVKGRFTVSSDNAKNTVYLQMNSLKPEDTAVYYCAEGPTVLDGCIVDSESYYFSWGQGTQVTVSS

# Reference: paper PMC10825579
